Laboratory results as given in publication PMC2629542.

Target: DraE R86G (E. coli)
Assay: SPR

N-domain of CEA (domain or fragment)
fold decrease in affinity against DraE: > 7 fold
